Measurements: ChEMBL document CHEMBL1137666, “Biochemical Characterization of SFC-1, a class A carbapenem-hydrolyzing beta-lactamase” (Antimicrob Agents Chemother, 2007)

Key:
[1] = substrate: CO[C@@]1(NC(=O)Cc2cccs2)C(=O)N2C(C(=O)O)=C(COC(N)=O)CS[C@@H]21; details: Enterobacter cloacae
Description: (§3) Activity of Enterobacter cloacae IMI1 beta lactamase expressed in Escherichia coli DH5alpha by SDS-PAGE

[2] = substrate: CC(=O)OCC1=C(C(=O)O)N2C(=O)[C@@H](NC(=O)Cc3cccs3)[C@H]2SC1; details: Enterobacter cloacae
Description: as §3

[3] = substrate: C[C@@H](O)[C@H]1C(=O)N2C(C(=O)O)=C(S[C@@H]3CN[C@H](C(=O)N(C)C)C3)[C@H](C)[C@H]12; details: Enterobacter cloacae
Description: as §3

[4] = substrate: CC(C)(O/N=C(\C(=O)N[C@@H]1C(=O)N2C(C(=O)[O-])=C(C[n+]3ccccc3)CS[C@H]12)c1csc(N)n1)C(=O)O; details: Enterobacter cloacae
Description: as §3

[5] = substrate: C[C@@H](O)[C@H]1C(=O)N2C(C(=O)O)=C(SCCNC=N)C[C@H]12; details: Enterobacter cloacae
Description: as §3

[6] = substrate: CCN1CCN(C(=O)N[C@@H](C(=O)N[C@@H]2C(=O)N3[C@@H]2SC(C)(C)[C@@H]3C(=O)O)c2ccccc2)C(=O)C1=O; details: Enterobacter cloacae
Description: as §3

[7] = substrate: CC1(C)S[C@@H]2[C@H](NC(=O)[C@H](N)c3ccccc3)C(=O)N2[C@H]1C(=O)O; details: Enterobacter cloacae
Description: as §3

[8] = substrate: C[C@H]1[C@H](NC(=O)/C(=N\OC(C)(C)C(=O)O)c2csc(N)n2)C(=O)N1S(=O)(=O)O; details: Enterobacter cloacae
Description: as §3

[9] = substrate: CO/N=C(\C(=O)N[C@@H]1C(=O)N2C(C(=O)O)=C(COC(C)=O)CS[C@H]12)c1csc(N)n1; details: Enterobacter cloacae
Description: as §3

[10] = substrate: CO[C@@]1(NC(=O)Cc2cccs2)C(=O)N2C(C(=O)O)=C(COC(N)=O)CS[C@@H]21; details: Enterobacter cloacae; remark: listed apart in the source
Description: (§4) Ratio of Kcat to Km for Enterobacter cloacae IMI1 beta lactamase Escherichia coli DH5alpha by SDS-PAGE

[11] = substrate: CC(=O)OCC1=C(C(=O)O)N2C(=O)[C@@H](NC(=O)Cc3cccs3)[C@H]2SC1; details: Enterobacter cloacae; remark: listed apart in the source
Description: as §4

[12] = substrate: C[C@@H](O)[C@H]1C(=O)N2C(C(=O)O)=C(S[C@@H]3CN[C@H](C(=O)N(C)C)C3)[C@H](C)[C@H]12; details: Enterobacter cloacae; remark: listed apart in the source
Description: as §4

[13] = substrate: CC(C)(O/N=C(\C(=O)N[C@@H]1C(=O)N2C(C(=O)[O-])=C(C[n+]3ccccc3)CS[C@H]12)c1csc(N)n1)C(=O)O; details: Enterobacter cloacae; remark: listed apart in the source
Description: as §4

[14] = substrate: C[C@@H](O)[C@H]1C(=O)N2C(C(=O)O)=C(SCCNC=N)C[C@H]12; details: Enterobacter cloacae; remark: listed apart in the source
Description: as §4

[15] = substrate: CCN1CCN(C(=O)N[C@@H](C(=O)N[C@@H]2C(=O)N3[C@@H]2SC(C)(C)[C@@H]3C(=O)O)c2ccccc2)C(=O)C1=O; details: Enterobacter cloacae; remark: listed apart in the source
Description: as §4

[16] = substrate: CC1(C)S[C@@H]2[C@H](NC(=O)[C@H](N)c3ccccc3)C(=O)N2[C@H]1C(=O)O; details: Enterobacter cloacae; remark: listed apart in the source
Description: as §4

[17] = substrate: C[C@H]1[C@H](NC(=O)/C(=N\OC(C)(C)C(=O)O)c2csc(N)n2)C(=O)N1S(=O)(=O)O; details: Enterobacter cloacae; remark: listed apart in the source
Description: as §4

[18] = substrate: CO/N=C(\C(=O)N[C@@H]1C(=O)N2C(C(=O)O)=C(COC(C)=O)CS[C@H]12)c1csc(N)n1; details: Enterobacter cloacae; remark: listed apart in the source
Description: as §4

[19] = substrate: CO[C@@]1(NC(=O)Cc2cccs2)C(=O)N2C(C(=O)O)=C(COC(N)=O)CS[C@@H]21; assay: (§1) Ratio of Kcat to Km for Serratia fonticola UTAD54 SFC1 beta lactamase expressed in Escherichia coli BL21(DE3) by SDS-PAGE
[20] = substrate: CC(=O)OCC1=C(C(=O)O)N2C(=O)[C@@H](NC(=O)Cc3cccs3)[C@H]2SC1; assay: as §1
[21] = substrate: C[C@@H](O)[C@H]1C(=O)N2C(C(=O)O)=C(S[C@@H]3CN[C@H](C(=O)N(C)C)C3)[C@H](C)[C@H]12; assay: as §1
[22] = substrate: CC(C)(O/N=C(\C(=O)N[C@@H]1C(=O)N2C(C(=O)[O-])=C(C[n+]3ccccc3)CS[C@H]12)c1csc(N)n1)C(=O)O; assay: as §1
[23] = substrate: C[C@@H](O)[C@H]1C(=O)N2C(C(=O)O)=C(SCCNC=N)C[C@H]12; assay: as §1
[24] = substrate: CCN1CCN(C(=O)N[C@@H](C(=O)N[C@@H]2C(=O)N3[C@@H]2SC(C)(C)[C@@H]3C(=O)O)c2ccccc2)C(=O)C1=O; assay: as §1
[25] = substrate: CC1(C)S[C@@H]2[C@H](NC(=O)[C@H](N)c3ccccc3)C(=O)N2[C@H]1C(=O)O; assay: as §1
[26] = substrate: C[C@H]1[C@H](NC(=O)/C(=N\OC(C)(C)C(=O)O)c2csc(N)n2)C(=O)N1S(=O)(=O)O; assay: as §1
[27] = substrate: CO/N=C(\C(=O)N[C@@H]1C(=O)N2C(C(=O)O)=C(COC(C)=O)CS[C@H]12)c1csc(N)n1; assay: as §1
[28] = substrate: CO[C@@]1(NC(=O)Cc2cccs2)C(=O)N2C(C(=O)O)=C(COC(N)=O)CS[C@@H]21; assay: (§2) Activity of Serratia fonticola UTAD54 SFC1 beta lactamase expressed in Escherichia coli BL21(DE3) by SDS-PAGE
[29] = substrate: CC(=O)OCC1=C(C(=O)O)N2C(=O)[C@@H](NC(=O)Cc3cccs3)[C@H]2SC1; assay: as §2
[30] = substrate: C[C@@H](O)[C@H]1C(=O)N2C(C(=O)O)=C(S[C@@H]3CN[C@H](C(=O)N(C)C)C3)[C@H](C)[C@H]12; assay: as §2
[31] = substrate: CC(C)(O/N=C(\C(=O)N[C@@H]1C(=O)N2C(C(=O)[O-])=C(C[n+]3ccccc3)CS[C@H]12)c1csc(N)n1)C(=O)O; assay: as §2
[32] = substrate: C[C@@H](O)[C@H]1C(=O)N2C(C(=O)O)=C(SCCNC=N)C[C@H]12; assay: as §2
[33] = substrate: CCN1CCN(C(=O)N[C@@H](C(=O)N[C@@H]2C(=O)N3[C@@H]2SC(C)(C)[C@@H]3C(=O)O)c2ccccc2)C(=O)C1=O; assay: as §2
[34] = substrate: CC1(C)S[C@@H]2[C@H](NC(=O)[C@H](N)c3ccccc3)C(=O)N2[C@H]1C(=O)O; assay: as §2
[35] = substrate: C[C@H]1[C@H](NC(=O)/C(=N\OC(C)(C)C(=O)O)c2csc(N)n2)C(=O)N1S(=O)(=O)O; assay: as §2
[36] = substrate: CO/N=C(\C(=O)N[C@@H]1C(=O)N2C(C(=O)O)=C(COC(C)=O)CS[C@H]12)c1csc(N)n1; assay: as §2

B1: IMI-1 (Enterobacter cloacae), Q46991 (protein)
chain: MSLNVKPSRIAILFSSCLVSISFFSQANTKGIDEIKDLETDFNGRIGVYALDTGSGKSFSYKANERFPLCSSFKGFLAAAVLKGSQDNQLNLNQIVNYNTRSLEFHSPITTKYKDNGMSLGDMAAAALQYSDNGATNIILERYIGGPEGMTKFMRSIGDKDFRLDRWELDLNTAIPGDERDTSTPAAVAKSLKTLALGNILNEREKETYQTWLKGNTTGAARIRASVPSDWVVGDKTGSCGAYGTANDYAVVWPKNRAPLIISVYTTKNEKEAKHEDKVIAEASRIAIDNLK
B1 showed a Km [1] of 45 µM, a kcat [1] of 0.3 s⁻¹ and a Km [2] of 130 µM. For the same protein, the kcat [2] was 120 s⁻¹, the Km [3] was 26 µM and the kcat [3] was 10 s⁻¹. For the same protein, the Km [4] was 270 µM, the kcat [4] was 0.0068 s⁻¹ and the Km [5] was 170 µM. The kcat [5] was 89 s⁻¹, the Km [6] was 13 µM and the kcat [6] was 6.1 s⁻¹. The Km [7] was 780 µM, the kcat [7] was 190 s⁻¹ and the Km [8] was 93 µM. For the same protein, the kcat [8] was 51 s⁻¹, the Km [9] was 190 µM and the kcat [9] was 3.4 s⁻¹. It also gave a kcat/Km [10] of 6700 M⁻¹ s⁻¹, a kcat/Km [11] of 920000 M⁻¹ s⁻¹ and a kcat/Km [12] of 380000 M⁻¹ s⁻¹. For the same protein, the kcat/Km [13] was 24 M⁻¹ s⁻¹, the kcat/Km [14] was 520000 M⁻¹ s⁻¹ and the kcat/Km [15] was 470000 M⁻¹ s⁻¹. The kcat/Km [16] was 240000 M⁻¹ s⁻¹, the kcat/Km [17] was 550000 M⁻¹ s⁻¹ and the kcat/Km [18] was 18000 M⁻¹ s⁻¹.

B2: Carbapenem-hydrolizing beta-lactamase SFC-1 (Serratia fonticola), Q6JP75 (protein)
chain: MSRTGRLSVFFSAIFPLLTLTNMAEAASQPPQVTVDKLKRLENDFGGRIGVYAIDTGSNKTFGYRANERFPLCSSFKGFLAAAVLSKSQQQEGLLNQRIRYDNRVMEPHSPVTEKQITTGMTVAELSAATLQYSDNGAANLLLEKLIGGPEGMTSFMRSIGDNVFRLDRWELELNSAIPGDDRDTSTPKAVAESMQKLAFGNVLGLTERHQLMDWFKGNTTGGARIRASVPANWVVGDKTGTCGVYGTANDYAVIWPVGHAPIVLAVYTSKPDKNSKHSDAVIADASRIVLESFNIDALRMATGKSIGF
Protein B2 has a kcat/Km [19] of 54500 M⁻¹ s⁻¹, a kcat/Km [20] of 2.17e+06 M⁻¹ s⁻¹ and a kcat/Km [21] of 250000 M⁻¹ s⁻¹. It also gave a kcat/Km [22] of 40400 M⁻¹ s⁻¹, a kcat/Km [23] of 659000 M⁻¹ s⁻¹ and a kcat/Km [24] of 1.19e+06 M⁻¹ s⁻¹. It also gave a kcat/Km [25] of 881000 M⁻¹ s⁻¹, a kcat/Km [26] of 335000 M⁻¹ s⁻¹ and a kcat/Km [27] of 93300 M⁻¹ s⁻¹. The Km [28] was 77 µM, the kcat [28] was 4.2 s⁻¹ and the Km [29] was 129 µM. The kcat [29] was 280 s⁻¹, the Km [30] was 26 µM and the kcat [30] was 6.5 s⁻¹. It also gave a Km [31] of 52 µM, a kcat [31] of 2.1 s⁻¹ and a Km [32] of 82 µM. The kcat [32] was 54 s⁻¹, the Km [33] was 38 µM and the kcat [33] was 44.7 s⁻¹. For the same protein, the Km [34] was 176 µM, the kcat [34] was 155 s⁻¹ and the Km [35] was 484 µM. It also gave a kcat [35] of 162 s⁻¹, a Km [36] of 89 µM and a kcat [36] of 8.3 s⁻¹.
